Publication PMC6405639

Tests used:
[1] = biological target: Y2R_cysteine_deficient_eYFP (in HEK293 cells) (human) (UniProt P49146); assay: radioligand binding; displacement of 60 pM [125I]-PYY from membrane preparations (0.75 μg protein) of transiently transfected HEK293 cells; HBSS with 1% BSA, room temperature, 3 h; filtration
[2] = biological target: Y2R_cysteine_deficient_eYFP (in HEK293 cells) (human) (UniProt P49146)
[3] = biological target: Y2R_cysteine_deficient_eYFP (in HEK293 cells) (human) (UniProt P49146); remark: listed apart in the source

Chain of Y2R_cysteine_deficient_eYFP (in HEK293 cells) (human) (P49146 other isoform, or with tags, fused parts or gaps): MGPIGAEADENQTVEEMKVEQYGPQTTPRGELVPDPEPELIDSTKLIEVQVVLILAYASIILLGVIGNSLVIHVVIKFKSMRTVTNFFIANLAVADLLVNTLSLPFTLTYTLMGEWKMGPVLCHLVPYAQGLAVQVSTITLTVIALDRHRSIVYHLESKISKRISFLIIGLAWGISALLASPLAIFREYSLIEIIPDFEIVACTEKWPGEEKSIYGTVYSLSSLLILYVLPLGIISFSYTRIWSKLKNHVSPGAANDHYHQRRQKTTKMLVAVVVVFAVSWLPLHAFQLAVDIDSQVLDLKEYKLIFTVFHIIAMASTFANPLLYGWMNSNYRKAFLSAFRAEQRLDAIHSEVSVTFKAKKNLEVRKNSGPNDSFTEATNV

| IC50 [1] [nM] | Ki [1] [nM] | EC50 of IP-one accumulation in HEK293 cells co-transfected with the receptor and the chimeric G protein GαΔ6qi4myr [2] [nM] | Emax of IP-one accumulation, normalised to the Y2R/NPY curve [2] [%] | potency in the IP-one accumulation assay [3] [nM] | Substance |
| --- | --- | --- | --- | --- | --- |
| 39 | 11.2 | 3.4 | 95 | 3.6 | 5(6)-TAMRA-Ahx(5-24)NPY (peptide) |
| – | – | 4 | 102 | – | [K^22[(Ahx)2-biotin]Bpa^27]NPY (peptide) |
